Source: patent US20250154236A1, “PREVENTION AND TREATMENT OF HEADACHES” (GlaxoSmithKline Intellectual Property (No. 3) Limited, priority 2022, published 2025)
Where two headings read alike, the source gives them in different places. Each block holds one molecule with its values, some of them ahead of it.

Key:
[1] = test system: adult rat trigeminal ganglia neurons; assay: CGRP release from cultured rat trigeminal ganglia neurons (ELISA); format: cell-based
Procedure: (§1) TG Cultures were prepared from 8-10-week Sprague-Dawley rats. Following cervical dislocation and cardiac cessation, trigeminal ganglia (TG) were dissociated and collected in ice cold HBSS buffer. TGs were digested in 20 U/ml papain for 20 min followed by another 20-min enzymatic digestion in 2% Collagenase Type 4 and Dispase II in 37° C. water bath. Digested TG ganglia were suspended in Leibovitz's L15 medium containing 10% Fetal Bovine Serum, 1% penicillin/streptomycin, 18.5 mM NaHCO3, 38 mM glucose. Cell suspensions were filtered in a 70 μm then a 40 μm cell strainer and were layered onto Leibovitz's L15 medium containing 4% BSA cushion followed by slow speed centrifuge at 100 g, 10 min. Cell pellets were suspended with DMEM medium containing 10% Fetal Bovine Serum and 1% penicillin/streptomycin. Cells were plated onto 96-well plates and cultured for 24 hours at 37° C., 5% CO2. Recombinant rat artemin protein and vehicle control buffer were added into appropriate wells for 24-hour pre-incubation as needed. For experiments testing the effect of an anti-artemin antibody or RET inhibitor, these agents were added to the TG culture simultaneously with artemin for 24 h for CGRP and SP assay or 48 h for PACAP assay. After 24 h or 48 h incubation, cell culture medium was removed and assay buffer containing TRPV1 agonist capsaicin (CAP) or TRPA1 agonist allyl isothiocyanate (AITC) were added into wells and incubated at 37° C., 10 min to trigger neuropeptide release. At the end of stimulation, the supernatant was collected and CGRP and SP content were measured using ELISA assay kits (Bertin Bioreagent). For PACAP assay, cells were cultured and pre-incubated with artemin for 48 hours prior to agonist stimulation to trigger PACAP release. PACAP content in supernatant was measured using an in-house developed ELISA assay.

[2] = test system: adult rat trigeminal ganglia neurons; assay: as above; format: cell-based; conditions: Neuron, 0.5 h
[3] = test system: rat TG neurons; assay: Substance P release from cultured rat trigeminal ganglia neurons (ELISA); format: cell-based; conditions: artemin pre-incubation
Procedure: as §1, with “For experiments testing the effect of an anti-artemin antibody or RET inhibitor, these agents were added to the TG culture simultaneously with artemin for 24 h for CGRP and SP assay or 48 h for PACAP assay. After 24 h or 48 h incubation, cell culture medium was removed and assay buffer containing TRPV1 agonist capsaicin (CAP) or TRPA1 agonist allyl isothiocyanate (AITC) were added into wells and incubated at 37° C., 10 min to trigger neuropeptide release.” left out, “For PACAP assay, cells were cultured and pre-incubated with artemin for 48 hours prior to agonist stimulation to trigger PACAP release.” left out

[4] = test system: rat TG neurons; assay: PACAP release from cultured rat trigeminal ganglia neurons (in-house ELISA); format: cell-based; conditions: artemin treatment for 48 hours
Procedure: as §1, with “For experiments testing the effect of an anti-artemin antibody or RET inhibitor, these agents were added to the TG culture simultaneously with artemin for 24 h for CGRP and SP assay or 48 h for PACAP assay. After 24 h or 48 h incubation, cell culture medium was removed and assay buffer containing TRPV1 agonist capsaicin (CAP) or TRPA1 agonist allyl isothiocyanate (AITC) were added into wells and incubated at 37° C., 10 min to trigger neuropeptide release.” left out, “For PACAP assay, cells were cultured and pre-incubated with artemin for 48 hours prior to agonist stimulation to trigger PACAP release.” left out

[5] = test system: rat (preclinical migraine model); assay: Artemin dural infusion study, periorbital von Frey sensitivity; format: in vivo; conditions: local dural infusion daily for five consecutive days, 0.018, 0.18 and 1.8 μg; versus vehicle, first two weeks
Procedure: Briefly, three different doses of rat artemin protein, inflammatory soup cocktail and vehicle buffer were administered daily via a stainless-steel cannula (22GA, Plastics One) embedded onto dura for 5 consecutive days to produce persistent facial hypersensitivity. Sensory testing occurred during the day using von Frey filaments with reproducible calibrated buckling forces varying from 0.4-10 g utilizing the simplified Chaplan up-and-down method. Allodynia was tested by perpendicularly touching the periorbital region causing slight buckling of the filament for approximately 5 seconds. The periorbital withdrawal threshold (g) was calculated based on the response pattern and the force of the final filament. The periorbital threshold data was recorded on the side of artemin, Inflammatory Soup Cocktail, or vehicle infusion only.

Molecule: C=CCN=C=S [AITC, allyl isothiocyanate, reference compound]
EC50 ([1]; Rattus norvegicus, Neuron, 24 h, read-out: EC50 of AITC for CGRP release): 6940 nM | EC50 ([1]; Rattus norvegicus, Neuron, read-out: EC50 of AITC for CGRP release): 17800 nM | EC50 ([2]; Rattus norvegicus, read-out: EC50 of AITC for CGRP release): 6600 nM

EC50 ([1]; Neuron, CAP+ARTN (24 h), 10 ng/ml rat artemin, read-out: EC50 of CAP for CGRP release): 20.2 nM | EC50 ([1]; Rattus norvegicus, Neuron, CAP alone, no artemin, read-out: EC50 of CAP for CGRP release): 21.6 nM | EC50 ([2]; CAP+ARTN (30 min), 10 ng/ml rat artemin, read-out: EC50 of CAP for CGRP release): 17.9 nM
Molecule: COc1cc(CNC(=O)CCCC/C=C/C(C)C)ccc1O [CAP, capsaicin, reference compound]

EC50 for artemin-potentiation of CGRP release ([1]; AITC stimulation, 24 hours of treatment): 0.092 ng/mL | EC50 ([1]; AITC stimulation, 24 hours of treatment, read-out: EC50 for artemin-potentiation of CGRP release): 0.0038 nM | EC50 for artemin-potentiation of CGRP release ([1]; CAP stimulation, 24 hours of treatment): 0.028 ng/mL
B1: artemin: Recombinant rat artemin protein, member of GDNF ligand family (protein)
chain: AGTRSSRARATDARGCRLRSQLVPVSALGLGHSSDELIRFRFCSGSCRRARSPHDLSLASLLDAGALRSPPGSRPISQPCCRPTRYEAVSFMDVNSTWRTVDHLSATACGCLG
artemin concentration reaching maximal effect on stimulated CGRP release ([1]; CAP and AITC fixed at ~EC50, artemin range 0.001 to 100 ng/ml): 1 ng/mL | effect on CAP- and AITC-stimulated Substance P (SP) release [3]: dose-dependently increased | effect on CAP- and AITC-stimulated PACAP release [4]: potentiated | periorbital sensitivity to mechanical stimulation [5]: significantly increased
